Assay results reported in patent US20060073508A1 (published 2006).

Biological target: GRK2 (βARK1)
Assay: cell-based or functional assay

B1: hemagglutinin epitope-tagged Del301-303 human alpha-2B adrenergic receptor (receptor)
chain: YPYDVPDYAMDHQDPYSVQATAAIAAAITFLILFTIFGNALVILAVLTSRSLRAPQNLFLVSLAAADILVATLIIPFSLANELLGYWYFRRTWCEVYLALDVLFCTSSIVHLCAISLDRYWAVSRALEYNSKRTPRRIKCIILTVWLIAAVISLPPLIYKGDQGPQPRGRPQCKLNQEAWYILASSIGSFFAPCLIMILVYLRIYLIAKRSNRRGPRAKGGPGQGESKQPRPDHGGALASAKLPALASVASAREVNGHSKSTGEKEEGETPEDTGTRALPPSWAALPNSGQGQKEGVCGASPEDEAEEEEEEEEECEPQAVPVSPASACSPPLQQPQGSRVLATLRGQVLLGRGVGAIGGQWWRRRAQLTREKRFTFVLAVVIGVFVLCWFPFFFSYSLGAICPKHCKVPHGLFQFFFWIGYCNSSLNPVIYTIFNQDFRRAFRRILCRPWTQTAW
- agonist-promoted whole cell phosphorylation of the receptor (10 µM norepinephrine): 3.28 fold increase
